The target of experiment [1] is SP6 tailspike protein gp47 (bacteriophage SP6). The experiment in a line: cryo-EM structure.
Experiment [2] deals with SP6 tailspike protein gp46 (bacteriophage SP6). Description: cryo-EM structure.

One may read the stoichiometry N as a count of units in the complex or per binding partner. In experiment [1], “SP6 tailspike protein gp47 (natural protein)” yielded a stoichiometry N of 3.
Consider “SP6 tailspike protein gp46 (natural protein)”, for which the stoichiometry N in experiment [2] was 3.

Source of the values: paper PMC5503682.
